± gives the standard deviation of the averaged measurements.
Assay: total protein half-life in vivo (active degradation + dilution); higher = more stable protein
[1] = E. coli NCM3722 delta-clpP delta-lon delta-hslV, growth: N-lim chemostat, doubling time 6 h
[2] = E. coli NCM3722 delta-clpP, growth: N-lim chemostat, doubling time 6 h
[3] = E. coli NCM3722 delta-hslV, growth: N-lim chemostat, doubling time 6 h
[4] = E. coli NCM3722 delta-lon, growth: N-lim chemostat, doubling time 6 h
[5] = E. coli NCM3722 delta-smpB, growth: N-lim chemostat, doubling time 6 h
[6] = wild type E. coli NCM3722, growth: C-lim chemostat, doubling time 3 h
[7] = wild type E. coli NCM3722, growth: C-lim chemostat, doubling time 6 h
[8] = wild type E. coli NCM3722, growth: C-lim chemostat, doubling time 12 h
[9] = wild type E. coli NCM3722, growth: N-lim chemostat, doubling time 6 h
[10] = wild type E. coli NCM3722, growth: N-lim chemostat, doubling time 12 h
[11] = wild type E. coli NCM3722, growth: P-lim chemostat, doubling time 6 h
[12] = wild type E. coli NCM3722, growth: P-lim chemostat, doubling time 12 h

Sequence | total protein half-life in vivo [1] [h] | total protein half-life in vivo [2] [h] | total protein half-life in vivo [3] [h] | total protein half-life in vivo [4] [h] | total protein half-life in vivo [5] [h] | total protein half-life in vivo [6] [h] | total protein half-life in vivo [7] [h] | total protein half-life in vivo [8] [h] | total protein half-life in vivo [9] [h] | total protein half-life in vivo [10] [h] | total protein half-life in vivo [11] [h] | total protein half-life in vivo [12] [h]
MTTILKHLPVGQRIGIAFSGGLDTSAALLWMRQKGAVPYAYTANLGQPDEEDYDAIPRRAMEYGAENARLIDCRKQLVAEGIAAIQCGAFHNTTGGLTYFNTTPLGRAVTGTMLVAAMKEDGVNIWGDGSTYKGNDIERFYRYGLLTNAELQIYKPWLDTDFIDELGGRHEMSEFMIACGFDYKMSVEKAYSTDSNMLGATHEAKDLEYLNSSVKIVNPIMGVKFWDESVKIPAEEVTVRFEQGHPVALNGKTFSDDVEMMLEANRIGGRHGLGMSDQIENRIIEAKSRGIYEAPGMALLHIAYERLLTGIHNEDTIEQYHAHGRQLGRLLYQGRWFDSQALMLRDSLQRWVASQITGEVTLELRRGNDYSILNTVSENLTYKPERLTMEKGDSVFSPDDRIGQLTMRNLDITDTREKLFGYAKTGLLSSSAASGVPQVENLENKGQ [P0A6E4] | 4.11 ± 0.6 | 3.3 ± 0.15 | 3.2 ± 0.23 | 3.89 ± 0.34 | 3.26 ± 0.15 | 3.17 ± 0.06 | 5.27 ± 0.081 | 9.91 ± 0.69 | 3.39 ± 0.12 | 4.82 ± 0.071 | 5.69 ± 0.15 | 10.7 ± 0.7
MGQEKLYIEKELSWLSFNERVLQEAADKSNPLIERMRFLGIYSNNLDEFYKVRFAELKRRIIISEEQGSNSHSRHLLGKIQSRVLKADQEFDGLYNELLLEMARNQIFLINERQLSVNQQNWLRHYFKQYLRQHITPILINPDTDLVQFLKDDYTYLAVEIIRGDTIRYALLEIPSDKVPRFVNLPPEAPRRRKPMILLDNILRYCLDDIFKGFFDYDALNAYSMKMTRDAEYDLVHEMEASLMELMSSSLKQRLTAEPVRFVYQRDMPNALVEVLREKLTISRYDSIVPGGRYHNFKDFINFPNVGKANLVNKPLPRLRHIWFDKAQFRNGFDAIRERDVLLYYPYHTFEHVLELLRQASFDPSVLAIKINIYRVAKDSRIIDSMIHAAHNGKKVTVVVELQARFDEEANIHWAKRLTEAGVHVIFSAPGLKIHAKLFLISRKENGEVVRYAHIGTGNFNEKTARLYTDYSLLTADARITNEVRRVFNFIENPYRPVTFDYLMVSPQNSRRLLYEMVDREIANAQQGLPSGITLKLNNLVDKGLVDRLYAASSSGVPVNLLVRGMCSLIPNLEGISDNIRAISIVDRYLEHDRVYIFENGGDKKVYLSSADWMTRNIDYRIEVATPLLDPRLKQRVLDIIDILFSDTVKARYIDKELSNRYVPRGNRRKVRAQLAIYDYIKSLEQPE [P0A7B1] | 6.92 ± 0.14 | 6.36 ± 0.29 | 6.79 ± 0.42 | 6.1 ± 0.063 | 6.038 ± 0.039 | 3.29 ± 0.35 | 6.27 ± 0.57 | – | 5.94 ± 0.53 | 13 ± 1.2 | 6.65 ± 0.23 | 13 ± 1.4
MQWQTKLPLIAILRGITPDEALAHVGAVIDAGFDAVEIPLNSPQWEQSIPAIVDAYGDKALIGAGTVLKPEQVDALARMGCQLIVTPNIHSEVIRRAVGYGMTVCPGCATATEAFTALEAGAQALKIFPSSAFGPQYIKALKAVLPSDIAVFAVGGVTPENLAQWIDAGCAGAGLGSDLYRAGQSVERTAQQAAAFVKAYREAVQ [Q6BF16] | 4.76 | – | – | – | – | 2.04 | 3.84 | 8.18 | – | – | – | –
MKVKVLSLLVPALLVAGAANAAEVYNKDGNKLDLYGKVDGLHYFSDNKDVDGDQTYMRLGFKGETQVTDQLTGYGQWEYQIQGNSAENENNSWTRVAFAGLKFQDVGSFDYGRNYGVVYDVTSWTDVLPEFGGDTYGSDNFMQQRGNGFATYRNTDFFGLVDGLNFAVQYQGKNGNPSGEGFTSGVTNNGRDALRQNGDGVGGSITYDYEGFGIGGAISSSKRTDAQNTAAYIGNGDRAETYTGGLKYDANNIYLAAQYTQTYNATRVGSLGWANKAQNFEAVAQYQFDFGLRPSLAYLQSKGKNLGRGYDDEDILKYVDVGATYYFNKNMSTYVDYKINLLDDNQFTRDAGINTDNIVALGLVYQF | 7.5928 ± 0.0042 | 6.32 ± 1.1 | 6.59 ± 0.66 | 7.2 ± 0.57 | 6.24 ± 0.51 | 3.37 ± 0.1 | 6.64 ± 0.99 | 11.6 ± 2 | 5.94 ± 0.54 | 12.4 ± 1.4 | 6.7 ± 0.53 | 13.9 ± 2.6
MDNRGEFLNNVAQALGRPLRLEPQAEDAPLNNYANERLTQLNQQQRCDAFIQFASDVMLTRCELTSEAKAAEAAIRLCKELGDQSVVISGDTRLEELGISERLQQECNAVVWDPAKGAENISQAEQAKVGVVYAEYGLTESGGVVLFSAAERGRSLSLLPEYSLFILRKSTILPRVAQLAEKLHQKAQAGERMPSCINIISGPSSTADIELIKVVGVHGPVKAVYLIIEDC | 4.84 ± 0.23 | 1.46 | 1.64 | 2.67 | 1.78 ± 0.043 | 2.33 ± 0.14 | 3.75 ± 0.5 | 5.23 ± 0.45 | – | 2.49 | 2.13 | –
MKLGFIGLGIMGTPMAINLARAGHQLHVTTIGPVADELLSLGAVSVETARQVTEASDIIFIMVPDTPQVEEVLFGENGCTKASLKGKTIVDMSSISPIETKRFARQVNELGGDYLDAPVSGGEIGAREGTLSIMVGGDEAVFERVKPLFELLGKNITLVGGNGDGQTCKVANQIIVALNIEAVSEALLFASKAGADPVRVRQALMGGFASSRILEVHGERMIKRTFNPGFKIALHQKDLNLALQSAKALALNLPNTATCQELFNTCAANGGSQLDHSALVQALELMANHKLA | 4.94 ± 0.21 | 3.37 ± 1.2 | – | 3.23 | – | – | – | – | – | – | 2.4 ± 2 | 2.16
MSDQQQPPVYKIALGIEYDGSKYYGWQRQNEVRSVQEKLEKALSQVANEPITVFCAGRTDAGVHGTGQVVHFETTALRKDAAWTLGVNANLPGDIAVRWVKTVPDDFHARFSATARRYRYIIYNHRLRPAVLSKGVTHFYEPLDAERMHRAAQCLLGENDFTSFRAVQCQSRTPWRNVMHINVTRHGPYVVVDIKANAFVHHMVRNIVGSLMEVGAHNQPESWIAELLAAKDRTLAAATAKAEGLYLVAVDYPDRYDLPKPPMGPLFLAD | 5.48 ± 0.18 | 4.85 ± 0.48 | 3.92 | 5.08 ± 0.086 | 5.64 ± 0.47 | – | – | 11.8 ± 2.3 | 5.31 ± 0.53 | 8.71 ± 1.2 | 5.81 ± 0.58 | 11.6 ± 0.43
MKKQTQLLSALALSVGLTLSASFQAVASIPGQVADQAPLPSLAPMLEKVLPAVVSVRVEGTASQGQKIPEEFKKFFGDDLPDQPAQPFEGLGSGVIINASKGYVLTNNHVINQAQKISIQLNDGREFDAKLIGSDDQSDIALLQIQNPSKLTQIAIADSDKLRVGDFAVAVGNPFGLGQTATSGIVSALGRSGLNLEGLENFIQTDASINRGNSGGALLNLNGELIGINTAILAPGGGSVGIGFAIPSNMARTLAQQLIDFGEIKRGLLGIKGTEMSADIAKAFNLDVQRGAFVSEVLPGSGSAKAGVKAGDIITSLNGKPLNSFAELRSRIATTEPGTKVKLGLLRNGKPLEVEVTLDTSTSSSASAEMITPALEGATLSDGQLKDGGKGIKIDEVVKGSPAAQAGLQKDDVIIGVNRDRVNSIAEMRKVLAAKPAIIALQIVRGNESIYLLMR | 6.2 ± 0.32 | – | 6.47 ± 0.17 | 6.3328 ± 0.0043 | 5.56 ± 0.2 | 3.05 ± 0.14 | 6.305 ± 0.0077 | 10 ± 0.31 | 6.06 ± 0.2 | 11.7 ± 0.17 | 5.48 ± 0.15 | 10.6 ± 0.71
